Test results taken from patent publication EP4626929A2 (dated 2025).

Biological target: BTLA on human primary B cells (human, UniProt Q7Z6A9 31-289)
Test: cell-based or functional assay

B1: BTLA agonist antibody M10825 (antibody, human IgG2, kappa)
heavy: QITLKESGPTLVKPTQTLTLTCTFSGFSLSTSGVGVGWIRQPPGKALEWLAQEFWTGDKRYSPSLKSRLTITKDTSKNQVVLTMTNMDPVDTATYYCTHKLGMNYFDYWGQGTLVTVSSASTKGPSVFPLAPCSRSTSESTAALGCLVKDYFPEPVTVSWNSGALTSGVHTFPAVLQSSGLYSLSSVVTVPSSNFGTQTYTCNVDHKPSNTKVDKTVERKCCVECPPCPAPPVAGPSVFLFPPKPKDTLMISRTPEVTCVVVDVSHEDPEVQFNWYVDGVEVHNAKTKPREEQFNSTFRVVSVLTVVHQDWLNGKEYKCKVSNKGLPAPIEKTISKTKGQPREPQVYTLPPSREEMTKNQVSLTCLVKGFYPSDIAVEWESNGQPENNYKTTPPMLDSDGSFFLYSKLTVDKSRWQQGNVFSCSVMHEALHNHYTQKSLSLSPG
light: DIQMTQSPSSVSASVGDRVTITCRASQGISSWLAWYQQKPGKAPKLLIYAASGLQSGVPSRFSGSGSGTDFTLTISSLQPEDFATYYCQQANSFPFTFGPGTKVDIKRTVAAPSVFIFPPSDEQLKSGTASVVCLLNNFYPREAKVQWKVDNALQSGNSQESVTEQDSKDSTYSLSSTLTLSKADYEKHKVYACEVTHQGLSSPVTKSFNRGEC
**Q.** Which “IC50 of inhibition of human primary B cell proliferation” value does the source give for B1 here?
**A.** The value was 10.5 nM.
